Source: paper PMC6704107

Columns and labels:
[1] = biological target: Adeno-associated virus receptor (AAVR), wild-type, PKD1-5 domains (UniProt Q8IZA0)
[2] = biological target: AAV2 capsid (Adeno-associated virus 2) (UniProt P03135); settings: cited from earlier work
[3] = biological target: recombinant AAV1 particles (AAV1 capsid) (adeno-associated virus 1) (UniProt Q9WBP8); test: SPR; Biacore T200; AAV1 or AAV5 particles immobilised on a CM5 chip by amide coupling (sodium acetate pH 4.5); wt or mutated AAVR flowed over at 30 ul/min, 25 C, PBS; triplicate experiments, mean with standard error
[4] = biological target: Adeno-associated virus 5 (AAV5) particle, wild-type capsid (adeno-associated virus 5 (AAV5)) (UniProt Q9YIJ1); test: SPR; Biacore T200; AAV1 or AAV5 particles immobilised on a CM5 chip by amide coupling; wt or mutated AAVR flowed over; 30 μl/min, 25 °C, PBS
[5] = biological target: recombinant AAV5 particles (AAV5 capsid) (adeno-associated virus 5) (UniProt Q9YIJ1); test: SPR; Biacore T200; AAV1 or AAV5 particles immobilised on a CM5 chip by amide coupling (sodium acetate pH 4.5); wt or mutated AAVR flowed over at 30 ul/min, 25 C, PBS; triplicate experiments, mean with standard error
[6] = biological target: Adeno-associated virus 1 (AAV1) particle, wild-type capsid (adeno-associated virus 1 (AAV1)) (UniProt Q9WBP8)
[7] = biological target: Adeno-associated virus 1 (AAV1) particle, wild-type capsid (adeno-associated virus 1 (AAV1)) (UniProt Q9WBP8); test: SPR; Biacore T200; AAV1 or AAV5 particles immobilised on a CM5 chip by amide coupling; wt or mutated AAVR flowed over; 30 μl/min, 25 °C, PBS

Sequence of AAVR (Q8IZA0 whole entry): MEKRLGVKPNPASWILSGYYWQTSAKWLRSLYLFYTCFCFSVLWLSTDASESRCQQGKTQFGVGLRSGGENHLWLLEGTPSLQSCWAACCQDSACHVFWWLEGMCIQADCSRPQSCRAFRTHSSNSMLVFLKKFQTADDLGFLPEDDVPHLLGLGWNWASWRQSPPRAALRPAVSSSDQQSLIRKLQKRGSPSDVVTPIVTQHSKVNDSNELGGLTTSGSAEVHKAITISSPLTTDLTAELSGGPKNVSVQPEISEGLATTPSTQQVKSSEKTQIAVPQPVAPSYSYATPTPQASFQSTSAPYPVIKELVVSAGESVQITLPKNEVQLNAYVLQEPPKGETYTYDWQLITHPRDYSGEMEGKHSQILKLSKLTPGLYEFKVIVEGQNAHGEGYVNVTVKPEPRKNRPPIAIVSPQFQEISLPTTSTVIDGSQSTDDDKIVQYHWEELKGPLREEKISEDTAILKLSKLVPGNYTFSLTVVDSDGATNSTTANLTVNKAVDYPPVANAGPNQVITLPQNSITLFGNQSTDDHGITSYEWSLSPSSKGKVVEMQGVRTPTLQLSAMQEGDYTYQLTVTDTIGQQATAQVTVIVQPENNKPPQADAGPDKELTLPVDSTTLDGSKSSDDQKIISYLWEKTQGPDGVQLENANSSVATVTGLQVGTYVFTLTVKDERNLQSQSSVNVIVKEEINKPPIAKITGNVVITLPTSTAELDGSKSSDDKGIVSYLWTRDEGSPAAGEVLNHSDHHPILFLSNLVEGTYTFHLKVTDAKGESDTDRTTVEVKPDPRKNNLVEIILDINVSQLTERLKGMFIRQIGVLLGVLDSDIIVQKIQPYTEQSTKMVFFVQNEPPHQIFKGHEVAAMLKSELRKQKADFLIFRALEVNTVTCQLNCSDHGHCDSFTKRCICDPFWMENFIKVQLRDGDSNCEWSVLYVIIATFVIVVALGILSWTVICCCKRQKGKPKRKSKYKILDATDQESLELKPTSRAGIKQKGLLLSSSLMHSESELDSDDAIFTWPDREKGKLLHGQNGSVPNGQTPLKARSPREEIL

AAV5 particle with capsid mutation E708A (from UniProt Q9YIJ1 1-724) (complex)
transduction of HEK293T cells (endogenous AAVR) by the mutated AAV5-GFP, functional titer against wt AAV5 [1]: 50 % of wt AAV5

AAV5 particle with capsid mutation Q532A (from UniProt Q9YIJ1 1-724) (complex)
transduction of HEK293T cells (endogenous AAVR) by the mutated AAV5-GFP, functional titer against wt AAV5 [1]: 50 % of wt AAV5

AAV5 particle with capsid mutation Y542A (from UniProt Q9YIJ1 1-724) (complex)
transduction of HEK293T cells (endogenous AAVR) by the mutated AAV5-GFP, functional titer against wt AAV5 [1]: 15 % of wt AAV5

AAVR (from UniProt Q8IZA0)
Kd [2]: 57 nM

AAVR PKD1-5 D354A (from UniProt Q8IZA0-1 1-1049) (domain or fragment)
Kd [3]: 17.4 nM

AAVR PKD1-5 D354A (from UniProt Q8IZA0-1 1-1049) (receptor)
fold decrease of binding affinity against wt AAVR [4]: 100 fold

AAVR PKD1-5 D429A (from UniProt Q8IZA0-1 1-1049) (domain or fragment)
Kd [5]: 243 nM

AAVR PKD1-5 D435A (from UniProt Q8IZA0-1 1-1049) (domain or fragment)
Kd [5]: 234 nM

AAVR PKD1-5 D435A (from UniProt Q8IZA0-1 1-1049) (receptor)
AAV1-mCherry transduction of AAVR-silenced HEK293T cells expressing AAVR with this mutation (pcDNA3.1(+)-AAVR) (% of AAV1 infection) [6]: 70

AAVR PKD1-5 D436A (from UniProt Q8IZA0-1 1-1049) (domain or fragment)
Kd [5]: 295 nM

AAVR PKD1-5 D437A (from UniProt Q8IZA0-1 1-1049) (domain or fragment)
Kd [5]: 252 nM

AAVR PKD1-5 E378A (from UniProt Q8IZA0-1 1-1049) (domain or fragment)
Kd [3]: 19.9 nM

AAVR PKD1-5 I349A (from UniProt Q8IZA0-1 1-1049) (domain or fragment)
Kd [3]: 18.5 nM

AAVR PKD1-5 I349A (from UniProt Q8IZA0-1 1-1049) (receptor)
Kd [4]: 7 nM

AAVR PKD1-5 K399A (from UniProt Q8IZA0-1 1-1049) (domain or fragment)
Kd [3]: 17.5 nM

AAVR PKD1-5 K399A (from UniProt Q8IZA0-1 1-1049) (receptor)
Kd [4]: 71900 nM

AAVR PKD1-5 K438A (from UniProt Q8IZA0-1 1-1049) (domain or fragment)
Kd [5]: 270 nM

AAVR PKD1-5 K464A (from UniProt Q8IZA0-1 1-1049) (domain or fragment)
Kd [5]: 265 nM

AAVR PKD1-5 K464A (from UniProt Q8IZA0-1 1-1049) (receptor)
Kd [7]: 1.32 nM

AAVR PKD1-5 L376A (from UniProt Q8IZA0-1 1-1049) (domain or fragment)
Kd [3]: 16.7 nM

AAVR PKD1-5 R353A (from UniProt Q8IZA0-1 1-1049) (domain or fragment)
Kd [3]: 20.5 nM

AAVR PKD1-5 S356A (from UniProt Q8IZA0-1 1-1049) (domain or fragment)
Kd [3]: 12.2 nM

AAVR PKD1-5 S356A (from UniProt Q8IZA0-1 1-1049) (receptor)
fold decrease of binding affinity against wt AAVR [4]: 100 fold

AAVR PKD1-5 S425A (from UniProt Q8IZA0-1 1-1049) (domain or fragment)
Kd [5]: 329 nM

AAVR PKD1-5 S431A (from UniProt Q8IZA0-1 1-1049) (domain or fragment)
Kd [5]: 244 nM

AAVR PKD1-5 S433A (from UniProt Q8IZA0-1 1-1049) (domain or fragment)
Kd [5]: 284 nM

AAVR PKD1-5 T350A (from UniProt Q8IZA0-1 1-1049) (domain or fragment)
Kd [3]: 14.2 nM

AAVR PKD1-5 T397A (from UniProt Q8IZA0-1 1-1049) (domain or fragment)
Kd [3]: 17.7 nM

AAVR PKD1-5 T397A (from UniProt Q8IZA0-1 1-1049) (receptor)
fold decrease of binding affinity against wt AAVR [4]: 100 fold

AAVR PKD1-5 T426A (from UniProt Q8IZA0-1 1-1049) (domain or fragment)
Kd [5]: 311 nM

AAVR PKD1-5 T434A (from UniProt Q8IZA0-1 1-1049) (domain or fragment)
Kd [5]: 289 nM

AAVR PKD1-5 T434A (from UniProt Q8IZA0-1 1-1049) (receptor)
AAV1-mCherry transduction of AAVR-silenced HEK293T cells expressing AAVR with this mutation (pcDNA3.1(+)-AAVR) (% of AAV1 infection) [6]: 70

AAVR PKD1-5 V427A (from UniProt Q8IZA0-1 1-1049) (domain or fragment)
Kd [5]: 306 nM

AAVR PKD1-5 Y442A (from UniProt Q8IZA0-1 1-1049) (domain or fragment)
Kd [5]: 269 nM

Adeno-associated virus receptor (AAVR), wild-type, PKD1-5 domains (from UniProt Q8IZA0-1 1-1049)
Kd [4]: 287 nM
Kd [7]: 13.9 nM

wild-type AAVR PKD1-5 domains with a C-terminal His-tag (from UniProt Q8IZA0-1 1-1049) (domain or fragment)
Kd [3]: 16.2 nM
